B1: D. melanogaster Gαq/z5 (other)
chain: MECCLSEEAKEQKRINQEIEKQLRRDKRDARRELKLLLLGTGESGKSTFIKQMRIIHGSGYSDEDKRGYIKLVFQNIFMAMQSMIKAMDMLKISYGQGEHSELADLVMSIDYETVTTFEDPYLNAIKTLWDDAGIQECYDRRREYQLTDSAKYYLKDLDRVAQPAYLPTEQDILRVRVPTTGIIEYPFDLEEIRFRMVDVGGQRSERRKWIHCFENVTSIIFLVALSEYDQILFESDNENRMEESKALFRTIITYPWFQNSSVILFLNKKDLLEEKIMYSHLVDYFPEYDGPQRDAITAREFILRMFVDLNPDSEKIIYSHFTCATDTENIRFVFAAVKDTILQSNLKYIGLC
B2: Human Gαq/s5 (other)
chain: MTLESIMACCLSEEAKEARRINDEIERQLRRDKRDARRELKLLLLGTGESGKSTFIKQMRIIHGSGYSDEDKRGFTKLVYQNIFTAMQAMIRAMDTLKIPYKYEHNKAHAQLVREVDVEKVSAFENPYVDAIKSLWNDPGIQECYDRRREYQLSDSTKYYLNDLDRVADPSYLPTQQDVLRVRVPTTGIIEYPFDLQSVIFRMVDVGGQRSERRKWIHCFENVTSIMFLVALSEYDQVLVESDNENRMEESKALFRTIITYPWFQNSSVILFLNKKDLLEEKIMYSHLVDYFPEYDGPQRDAQAAREFILKMFVDLNPDSDKIIYSHFTCATDTENIRFVFAAVKDTILQLNLKQYELL
B3: Human Gαq/s9 (other)
chain: MTLESIMACCLSEEAKEARRINDEIERQLRRDKRDARRELKLLLLGTGESGKSTFIKQMRIIHGSGYSDEDKRGFTKLVYQNIFTAMQAMIRAMDTLKIPYKYEHNKAHAQLVREVDVEKVSAFENPYVDAIKSLWNDPGIQECYDRRREYQLSDSTKYYLNDLDRVADPSYLPTQQDVLRVRVPTTGIIEYPFDLQSVIFRMVDVGGQRSERRKWIHCFENVTSIMFLVALSEYDQVLVESDNENRMEESKALFRTIITYPWFQNSSVILFLNKKDLLEEKIMYSHLVDYFPEYDGPQRDAQAAREFILKMFVDLNPDSDKIIYSHFTCATDTENIRFVFAAVKDTILQMHLRQYELL
B4: Human Gαq/z5 (identical to Accession number L76256) (other)
chain: MTLESIMACCLSEEAKEARRINDEIERQLRRDKRDARRELKLLLLGTGESGKSTFIKQMRIIHGSGYSDEDKRGFTKLVYQNIFTAMQAMIRAMDTLKIPYKYEHNKAHAQLVREVDVEKVSAFENPYVDAIKSLWNDPGIQECYDRRREYQLSDSTKYYLNDLDRVADPAYLPTQQDVLRVRVPTTGIIEYPFDLQSVIFRMVDVGGQRSERRKWIHCFENVTSIMFLVALSEYDQVLVESDNENRMEESKALFRTIITYPWFQNSSVILFLNKKDLLEEKIMYSHLVDYFPEYDGPQRDAQAAREFILKMFVDLNPDSDKIIYSHFTCATDTENIRFVFAAVKDTILQLNLKYIGLC
B5: C. elegans Gαq/s9 (other)
chain: MACCLSEEAREQKRINQEIEKQLQRDKRNARRELKLLLLGTGESGKSTFIKQMRIIHGQGYSEEDKRAHIRLVYQNVFMAIQSMIRAMDTLDIKFGNESEELQEKAAVVREVDFESVTSFEEPYVSYIKELWEDSGIQECYDRRREYQLTDSAKYYLSDLRRLAVPDYLPTEQDILRVRVPTTGIIEYPFDLEQIIFRMVDVGGQRSERRKWIHCFENVTSIMFLVALSEYDQVLVECDNENRMEESKALFRTIITYPWFTNSSVILFLNKKDLLEEKILYSHLADYFPEYDGPPRDPIAAREFILKMFVDLNPDADKIIYSHFTCATDTENIRFVFAAVKDTILQMHLRQYELL
B6: C. elegans Gαq/s21 (other)
chain: MACCLSEEAREQKRINQEIEKQLQRDKRNARRELKLLLLGTGESGKSTFIKQMRIIHGQGYSEEDKRAHIRLVYQNVFMAIQSMIRAMDTLDIKFGNESEELQEKAAVVREVDFESVTSFEEPYVSYIKELWEDSGIQECYDRRREYQLTDSAKYYLSDLRRLAVPDYLPTEQDILRVRVPTTGIIEYPFDLEQIIFRMVDVGGQRSERRKWIHCFENVTSIMFLVALSEYDQVLVECDNENRMEESKALFRTIITYPWFTNSSVILFLNKKDLLEEKILYSHLADYFPEYDGPPRDPIAAREFILKMFVDLNPDADKIIYSHFTCATDTENIRRVFNDCRDIIQRMHLRQYELL

How the values were obtained:
Assay in all cases: cell-based or functional assay
[1] = biological target: T1, human dopamine D1 receptor (human, UniProt P21728 1-446)
T1 sequence (P21728 whole entry): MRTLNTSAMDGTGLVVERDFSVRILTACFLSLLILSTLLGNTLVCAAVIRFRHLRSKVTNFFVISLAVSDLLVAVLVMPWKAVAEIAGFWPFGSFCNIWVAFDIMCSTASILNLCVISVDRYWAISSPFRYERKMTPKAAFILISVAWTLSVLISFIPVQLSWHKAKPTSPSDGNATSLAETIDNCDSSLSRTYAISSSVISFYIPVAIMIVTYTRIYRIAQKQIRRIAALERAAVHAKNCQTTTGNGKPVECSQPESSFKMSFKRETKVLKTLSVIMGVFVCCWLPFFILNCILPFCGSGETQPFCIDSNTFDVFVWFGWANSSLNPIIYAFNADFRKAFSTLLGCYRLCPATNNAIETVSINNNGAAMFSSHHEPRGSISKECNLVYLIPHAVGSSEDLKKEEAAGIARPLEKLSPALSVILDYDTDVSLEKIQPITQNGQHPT

[2] = biological target: human β2 adrenergic receptor (human, UniProt P07550 1-413)
[3] = biological target: human dopamine D5 receptor (human, UniProt P21918 1-477)
Chain of human dopamine D5 receptor (P21918 whole entry): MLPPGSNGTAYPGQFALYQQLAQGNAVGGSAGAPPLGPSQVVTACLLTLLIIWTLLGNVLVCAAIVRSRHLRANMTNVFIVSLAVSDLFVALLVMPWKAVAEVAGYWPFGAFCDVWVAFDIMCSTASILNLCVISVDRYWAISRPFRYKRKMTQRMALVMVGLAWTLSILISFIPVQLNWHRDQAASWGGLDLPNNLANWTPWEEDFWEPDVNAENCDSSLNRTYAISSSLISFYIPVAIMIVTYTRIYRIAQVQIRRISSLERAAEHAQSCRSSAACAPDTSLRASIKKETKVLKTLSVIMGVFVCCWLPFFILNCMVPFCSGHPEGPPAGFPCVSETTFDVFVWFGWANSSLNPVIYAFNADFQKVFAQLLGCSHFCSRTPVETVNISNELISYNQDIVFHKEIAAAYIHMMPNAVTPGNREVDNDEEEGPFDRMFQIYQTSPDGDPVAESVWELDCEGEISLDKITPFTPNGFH

human 5HT7 receptor = human 5HT7 receptor (human, UniProt P34969 1-479)
Chain of human 5HT7 receptor (P34969 whole entry): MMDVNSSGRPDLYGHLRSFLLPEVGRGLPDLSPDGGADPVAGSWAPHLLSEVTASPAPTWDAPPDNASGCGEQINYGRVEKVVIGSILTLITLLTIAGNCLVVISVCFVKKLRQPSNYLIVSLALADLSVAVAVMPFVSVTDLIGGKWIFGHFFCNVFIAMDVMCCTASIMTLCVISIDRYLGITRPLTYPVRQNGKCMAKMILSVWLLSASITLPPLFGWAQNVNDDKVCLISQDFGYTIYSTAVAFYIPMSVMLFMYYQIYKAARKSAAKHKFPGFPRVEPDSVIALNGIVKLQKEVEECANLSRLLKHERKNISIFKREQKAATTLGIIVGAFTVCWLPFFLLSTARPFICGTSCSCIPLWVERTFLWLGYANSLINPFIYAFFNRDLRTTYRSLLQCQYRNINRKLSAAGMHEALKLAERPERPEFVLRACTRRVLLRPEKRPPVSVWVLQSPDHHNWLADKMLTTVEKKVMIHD

human 5HT4 receptor = human 5HT4 receptor (human, UniProt Q13639 1-388)
Chain of human 5HT4 receptor (Q13639 whole entry): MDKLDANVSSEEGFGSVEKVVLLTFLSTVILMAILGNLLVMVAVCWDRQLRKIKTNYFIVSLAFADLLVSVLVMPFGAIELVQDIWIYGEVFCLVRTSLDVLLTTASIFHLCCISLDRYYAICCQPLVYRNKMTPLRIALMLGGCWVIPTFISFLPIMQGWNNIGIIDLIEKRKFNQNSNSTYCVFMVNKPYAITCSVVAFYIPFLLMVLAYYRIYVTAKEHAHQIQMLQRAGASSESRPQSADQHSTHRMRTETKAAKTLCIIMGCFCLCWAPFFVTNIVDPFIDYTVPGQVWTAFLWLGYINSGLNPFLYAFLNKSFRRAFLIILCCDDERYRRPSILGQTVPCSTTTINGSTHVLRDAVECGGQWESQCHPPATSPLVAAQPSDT

human GLP-1 receptor = human GLP-1 receptor (human, UniProt P43220 24-463)
[4] = biological target: T1, human dopamine D1 receptor; remark: listed apart in the source
human 5HT6 receptor = human 5HT6 receptor (human, UniProt P50406 1-440)
Chain of human 5HT6 receptor (P50406 whole entry): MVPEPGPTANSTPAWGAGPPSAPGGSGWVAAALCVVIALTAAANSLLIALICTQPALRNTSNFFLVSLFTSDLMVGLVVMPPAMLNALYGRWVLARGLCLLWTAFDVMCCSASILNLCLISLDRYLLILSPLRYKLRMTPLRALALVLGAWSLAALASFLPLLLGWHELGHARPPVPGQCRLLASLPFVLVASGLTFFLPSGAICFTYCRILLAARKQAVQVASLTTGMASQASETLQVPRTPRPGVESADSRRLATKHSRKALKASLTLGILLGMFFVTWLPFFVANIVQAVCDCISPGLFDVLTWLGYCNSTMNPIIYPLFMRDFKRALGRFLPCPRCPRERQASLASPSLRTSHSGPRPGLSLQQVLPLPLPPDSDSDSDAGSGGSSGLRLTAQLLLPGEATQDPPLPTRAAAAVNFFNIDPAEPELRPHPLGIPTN

[5] = biological target: T1, human dopamine D1 receptor; remark: listed apart in the source

| Binder | max Ca2+ signal, COS-7, FLIPR; 100 µM dopamine [1] [fluorescence units] | max Ca2+ signal, COS-7, FLIPR; agonist NE [2] [fluorescence units] | max Ca2+ signal, COS-7, FLIPR; agonist DA [3] [fluorescence units] | max Ca2+ signal, COS-7, FLIPR; agonist 5HT (human 5HT7 receptor) [fluorescence units] | max Ca2+ signal, COS-7, FLIPR; agonist 5HT (human 5HT4 receptor) [fluorescence units] | max Ca2+ signal, COS-7, FLIPR; agonist GLP-1 (human GLP-1 receptor) [fluorescence units] | max Ca2+ signal, COS-7, FLIPR; agonist DA [4] [fluorescence units] | max Ca2+ signal, COS-7, FLIPR; agonist 5HT (human 5HT6 receptor) [fluorescence units] | max Ca2+ signal, COS-7, FLIPR; agonist dopamine; fold over hGαq/s9 [5] [fold] |
| --- | --- | --- | --- | --- | --- | --- | --- | --- | --- |
| B1 | 2150 | – | – | – | – | – | – | – | – |
| B2 | – | 43 | 0 | 0 | 1710 | 189 | 0 | 98 | – |
| B3 | – | 1440 | 745 | 0 | 2310 | 4200 | 5690 | 999 | – |
| B4 | 0 | – | – | – | – | – | – | – | – |
| B5 | – | 3110 | 1870 | 387 | 1700 | 2460 | 8690 | 1640 | 1.5 |
| B6 | – | 3510 | 3380 | 206 | 1730 | 3120 | 9430 | 1010 | – |
